Data published in patent US20250340591A1, “COMPOSITION FOR PREVENTING OR TREATING INFLAMMATORY BOWEL DISEASE CONTAINING NOVEL COMPOUND” (ANYGEN CO., LTD., priority 2021, published 2025).
Square brackets hold non-standard residues; d marks the D form. Ends that are not written are not given here. Peptide text beside a SMILES is read from it. * marks the point of attachment. His(Trt) = N[C@@H](Cc1cn(C(c2ccccc2)(c2ccccc2)c2ccccc2)cn1)C(=O)O; dHis(Trt) = N[C@H](Cc1cn(C(c2ccccc2)(c2ccccc2)c2ccccc2)cn1)C(=O)O; Biotin = O=C1N[C@H]2[C@H](CS[C@H]2CCCCC(=O)*)N1; His(τ-Bzl) = N[C@@H](Cc1cn(Cc2ccccc2)cn1)C(=O)O; 4‑chlorobenzhydryl = Clc1ccc(C(c2ccccc2)*)cc1; Bip = N[C@@H](Cc1ccc(-c2ccccc2)cc1)C(=O)O; dPhe(4-Br) = N[C@H](Cc1ccc(Br)cc1)C(=O)O; dPhe(4-Me) = Cc1ccc(C[C@@H](N)C(=O)O)cc1; Trt = c1ccc(C(c2ccccc2)(c2ccccc2)*)cc1; dPhe(4-F) = N[C@H](Cc1ccc(F)cc1)C(=O)O; Dmt = Cc1cc(O)cc(C)c1C[C@H](N)C(=O)O; Benzhydryl = c1ccc(C(c2ccccc2)*)cc1; Palmitoyl = CCCCCCCCCCCCCCCC(=O)*; Myristoyl = CCCCCCCCCCCCCC(=O)*; Lauroyl = CCCCCCCCCCCC(=O)*; Decanoyl = CCCCCCCCCC(=O)*; Octanoyl = CCCCCCCC(=O)*; SO3H = O=S(=O)(O)*; Bn = c1ccc(C*)cc1

T1: GPR39 (G protein coupled receptor 39) (UniProt O43194 1-453, limits assumed)
T1 sequence (looked up): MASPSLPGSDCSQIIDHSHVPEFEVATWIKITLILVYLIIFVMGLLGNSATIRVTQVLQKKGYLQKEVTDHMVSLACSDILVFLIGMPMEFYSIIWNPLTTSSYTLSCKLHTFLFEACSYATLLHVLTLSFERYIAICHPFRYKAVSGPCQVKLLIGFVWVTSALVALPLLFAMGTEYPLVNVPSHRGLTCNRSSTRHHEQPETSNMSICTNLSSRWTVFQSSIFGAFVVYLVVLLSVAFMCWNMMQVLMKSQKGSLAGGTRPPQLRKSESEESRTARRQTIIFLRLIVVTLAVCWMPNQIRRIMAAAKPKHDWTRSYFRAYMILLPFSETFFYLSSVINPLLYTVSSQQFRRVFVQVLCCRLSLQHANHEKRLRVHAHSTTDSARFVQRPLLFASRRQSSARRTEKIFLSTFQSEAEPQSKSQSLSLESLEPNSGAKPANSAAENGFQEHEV

T2: GPR39 (Homo sapiens, UniProt O43194)
T2 sequence (O43194 1-453): T1 sequence (looked up)

B1: HKFY-25 (peptide)
peptide: H(Trt)K(Lauroyl)FY-OH
B2: HKFY-36 (peptide)
peptide: H(Benzhydryl)K(Octanoyl)[dPhe(4-Me)][Dmt]
B3: HKFY-33 (peptide)
peptide: H(Benzhydryl)K(Octanoyl)FY
B4: HKFY-21 (peptide)
peptide: H(4‑chlorobenzhydryl)K(Octanoyl)FY
B5: HKFY-41 (peptide)
peptide: H(Trt)K(Octanoyl)FYQNGARF
modifications: not fully specified (C-terminus)
B6: HKFY-24 (peptide)
peptide: H(Trt)K(Decanoyl)FY-OH
B7: HKFY-35 (peptide)
peptide: H(Benzhydryl)K(Octanoyl)[dPhe(4-Me)]Y(SO3H)
B8: HKFY-48 (peptide)
peptide: H(Trt)K(Octanoyl)YY-OH
B9: HKFY-38 (peptide)
peptide: H(Trt)K(Octanoyl)FYSDQQARF
modifications: not fully specified; printed as His(trt)-Lys(caprylic)-Phe-Tyr-Ser-Asp-Gln-Gln-Ala-Arg-Phe
B10: HKFY-37 (peptide)
peptide: GSH(Trt)K(Octanoyl)FY
B11: HKFY-42 (peptide)
peptide: H(Trt)K(Octanoyl)FYHQQARF
modifications: not fully specified; printed as His(trt)-Lys(caprylic)-Phe-Tyr-His-Gln-Gln-Ala-Arg-Phe
B12: HKFY-22 (peptide)
peptide: H(4‑methylbenzhydryl)K(Octanoyl)FY
B13: HKFY-29 (peptide)
peptide: H(Trt)K(Octanoyl)[dPhe(4-Br)]Y-OH
B14: HKFY-49 (peptide)
peptide: His(Trt)-Lys(Octanoyl)-Phe-OH
B15: HKFY-32 (peptide)
peptide: HK(Octanoyl)[dPhe(4-Me)]Y
modifications: not fully specified (residue 1)
B16: HKFY-44 (peptide)
peptide: H(Trt)K(Octanoyl)FYW
B17: HKFY-45 (peptide)
peptide: Biotin-H(Trt)K(Octanoyl)[Bip]Y
B18: HKFY-26 (peptide)
peptide: H(Trt)K(Myristoyl)FY-OH
B19: HKFY-28 (peptide)
peptide: H(Trt)K(Octanoyl)[dPhe(4-F)]Y-OH
B20: HKFY-27 (peptide)
peptide: H(Trt)K(Palmitoyl)FY-OH
B21: HKFY-4 (peptide)
peptide: [dH](Trt)K(Octanoyl)FY
B22: HKFY-30 (peptide)
peptide: H(Trt)K(Octanoyl)[dPhe(4-Me)]Y
B23: HKFY-31 (peptide)
peptide: [dH](Trt)K(Octanoyl)[dPhe(4-Me)]Y
B24: HKFY-3 (peptide)
peptide: H(Bn)K(Octanoyl)FY
B25: HKFY-47 (peptide)
peptide: H(Trt)K(Octanoyl)YF-OH
B26: HKFY-43 (peptide)
peptide: H(Trt)K(Octanoyl)FYQNQARF
modifications: also: C-terminal Phe amide in IUPAC name, not in sequence formula
B27: HKFY-39 (peptide)
peptide: H(Trt)K(Octanoyl)FYSQNGARF
modifications: also: C-terminal amide in IUPAC name, not in sequence formula, .39 lacks Gln-Asn
B28: HKFY-40 (peptide)
peptide: H(Trt)K(Octanoyl)FYSHQQARF
modifications: not fully specified; printed as His(trt)-Lys(caprylic)-Phe-Tyr-Ser-His-Gln-Gln-Ala-Arg-Phe
B29: HKFY-46 (peptide)
peptide: H(Trt)K(Octanoyl)FW
B30: HKFY-23 (peptide)
peptide: HK(Octanoyl)FY
modifications: not fully specified; also: His1 substituent: adamantan-1-yl or adamantanmethyl

Target: T1, GPR39 (G protein coupled receptor 39)
Test: cell-based or functional assay

Row | Molecule | EC50; SRE-luciferase reporter | ECmax; SRE-luciferase reporter
1 | B1 | 630 nM | 7.72 -fold induction over basal
2 | B2 | 150 nM | 9.9 -fold induction over basal
3 | B3 | 150 nM | 20 -fold induction over basal
4 | B4 | 136000 nM | 18.3 -fold induction over basal
5 | B5 | 9550 nM | 12.2 -fold induction over basal
6 | B6 | 240 nM | 7.03 -fold induction over basal
7 | B7 | 280 nM | 18.9 -fold induction over basal
8 | B8 | 330 nM | 14.4 -fold induction over basal
9 | B9 | 3500 nM | 16.5 -fold induction over basal
10 | B10 | 1840 nM | 16 -fold induction over basal
11 | B11 | 1580 nM | 11.8 -fold induction over basal
12 | B12 | 59800 nM | 21.3 -fold induction over basal
13 | B13 | 310 nM | 26.8 -fold induction over basal
14 | B14 | 320 nM | 18.3 -fold induction over basal
15 | B15 | 2 nM | 21.5 -fold induction over basal
16 | B16 | 370 nM | 20 -fold induction over basal
17 | B17 | 140 nM | 21 -fold induction over basal
18 | B18 | 280 nM | 19.8 -fold induction over basal
19 | B19 | 74 nM | 22.9 -fold induction over basal
20 | B20 | 560 nM | 20.4 -fold induction over basal
21 | B21 | 130 nM | 16.8 -fold induction over basal
22 | B22 | 8 nM | 23.9 -fold induction over basal
23 | B23 | 20 nM | 20.9 -fold induction over basal
24 | B24 | 4130 nM | 9.2 -fold induction over basal
25 | B25 | 300 nM | 13 -fold induction over basal
26 | B26 | 1210 nM | 12.1 -fold induction over basal
27 | B27 | – | 12.1 -fold induction over basal
28 | B28 | 1300 nM | 13.4 -fold induction over basal
29 | B29 | 260 nM | 20 -fold induction over basal
30 | B30 | 2600 nM | 15 -fold induction over basal

Target: T2, GPR39
Test: luciferase assay system (SRE luciferase reporter gene, CV-1 cells expressing GPR39)
Assay type: cell-based
Design: expressed in transfected cells; host or cells: CV-1 fibroblast cell line (Korea Cell Line Bank), adenoviral transduction at 50 MOI

Row | Molecule | ECmax (−fold induction over basal)
31 | CCCCCCCC(=O)NCCCC[C@H](NC(=O)[C@@H](N)Cc1cn(C(c2ccccc2)(c2ccccc2)c2ccccc2)cn1)C(=O)N[C@@H](Cc1ccccc1)C(=O)N[C@@H](Cc1ccc(O)cc1)C(=O)O [HKFY-1, N6-octanoyl-N2-(Nt-trityl-L-histidyl)-L-lysyl-L-phenylalanyl-L-tyrosine] (H-[His(Trt)]K(Octanoyl)FY-OH) | 20.51 ± 0.57 fold induction over basal
32 | CCCCCCCC(=O)NCCCC[C@H](NC(=O)[C@H](Cc1cn(C(c2ccccc2)(c2ccccc2)c2ccccc2)cn1)NC(=O)CCCC[C@@H]1SC[C@@H]2NC(=O)N[C@@H]21)C(=O)N[C@@H](Cc1ccccc1)C(=O)N[C@@H](Cc1ccc(O)cc1)C(=O)O [HKFY-2, N6-octanoyl-N2-(Na-(5-((3aS,4S,6aR)-2-oxohexahydro-1H-thieno[3,4-d]imidazol-4-yl)pentanoyl)-Nt-trityl-L-histidyl)-L-lysyl-L-phenylalanyl-L-tyrosine] (Biotin-[His(Trt)]K(Octanoyl)FY-OH) | 15 ± 1.87 fold induction over basal
33 | CCCCCCCC(=O)NCCCC[C@H](NC(=O)[C@@H](N)Cc1cn(Cc2ccccc2)cn1)C(=O)N[C@@H](Cc1ccccc1)C(=O)N[C@@H](Cc1ccc(O)cc1)C(=O)O [HKFY-3, N2-(Nt-benzyl-L-histidyl)-N6-octanoyl-L-lysyl-L-phenylalanyl-L-tyrosine] (H-[His(τ-Bzl)]K(Octanoyl)FY-OH) | 9.2 ± 2.58 fold induction over basal
34 | CCCCCCCC(=O)NCCCC[C@H](NC(=O)[C@H](N)Cc1cn(C(c2ccccc2)(c2ccccc2)c2ccccc2)cn1)C(=O)N[C@@H](Cc1ccccc1)C(=O)N[C@@H](Cc1ccc(O)cc1)C(=O)O [HKFY-4, N6-octanoyl-N2-(Nt-trityl-D-histidyl)-L-lysyl-L-phenylalanyl-L-tyrosine] (H-[dHis(Trt)]K(Octanoyl)FY-OH) | 16.8 ± 1.87 fold induction over basal
35 | CCCCCCCC(=O)NCCCC[C@H](NC(=O)[C@@H](N)Cc1cn(C(c2ccccc2)(c2ccccc2)c2ccc(C)cc2)cn1)C(=O)N[C@@H](Cc1ccccc1)C(=O)N[C@@H](Cc1ccc(O)cc1)C(=O)O [HKFY-5, N2-(Nt-(diphenyl(p-tolyl)methyl)-L-histidyl)-N6-octanoyl-L-lysyl-L-phenylalanyl-L-tyrosine] | 16 ± 1.7 fold induction over basal
